One substance from patent US20170340751A1 can be followed below.

The target of assay [1] is SIINFEKL/MHC-I complex on DC2.4 cells (mouse) (UniProt P01901). Kind of assay: flow cytometry of DC2.4 cells loaded with SIINFEKL peptide (positive control), PE-25.D1-16 at 0.6 ug/ml.
Assay [2] has the same target. Kind of assay: flow cytometry of DC2.4 cells incubated 13 h with OVA antigen fusion protein (SEQ ID NO: 3), PE-25.D1-16 at 0.6 ug/ml. On the technique in general: A flow cytometer gives signals particle by particle.

For PE-labeled monoclonal antibody 25.D1-16, the percent of cells positively stained was over 80% in assay [1] and 17.6% in assay [2].
